What was measured:
[1] = target: T1, human LILRB1 on cells (human, UniProt Q8NHL6 24-650); assay: flow cytometry, 721.221 cells, AF647-labelled antibody
T1 construct: whole, on cells; also called hLILRB1; LILRB1-expressing 721.221 cells
Experimental: While LILRB2 expression is mostly restricted to myeloid cells, LILRB1 has a broader expression on immune cell subsets, including B cells, T cells and NK cells.
Frozen cells were removed from storage in vapor phase liquid nitrogen and thawed by gentle swirling in a water bath at 37° C., then resuspended in DMEM media with 10% FBS. Cells were placed in a 15 mL conical tube and centrifuged at 300×g for 5 min, then supernatant was removed. Cells were resuspended in DMEM+10% FBS at a cell density of 2×10⁵ cells/mL in a T75 flask for culturing, and incubated at 37° C., 5% CO₂ for 3 days before passaging. Cells were passaged when the cell density reached 1×10⁶ cell/mL. On the day of the assay, cells were centrifuged, then supernatant was removed. Cells were resuspended in Blocking Buffer B (FACS Buffer containing 10% FBS and 0.5 mg/mL human IgG1 (Athens Research, No. 16-16-090707-1M)+0.05% NaN₃, 5% (w/v)) in a 15 mL conical tube, then incubated at 4° C. for 30 min. […] Cells were incubated with antibodies at 4° C. for 1 h. Cells were washed twice in FACS Buffer (PBS containing 2 mM EDTA+1% FBS+0.05% NaN₃) and then stained with for 10 min with Zombie Violet™ fixable viability dye (BioLegend, No. 423114) at RT, washed with FACS Buffer and resuspend in 75 μL of FACS Buffer for acquisition on a BD FACSymphony™ or BD FACSCanto™ II flow cytometer (BD Biosciences), as described in Example 6.

[2] = target: T2, human LILRB2 on cells (human, UniProt Q8N423 22-597); assay: flow cytometry, LILRB2-HEK293T cells, AF647-labelled antibody
T2 construct: whole, on cells; also called hLILRB2; LILRB2-HEK293T
T2 sequence (Q8N423 22-597): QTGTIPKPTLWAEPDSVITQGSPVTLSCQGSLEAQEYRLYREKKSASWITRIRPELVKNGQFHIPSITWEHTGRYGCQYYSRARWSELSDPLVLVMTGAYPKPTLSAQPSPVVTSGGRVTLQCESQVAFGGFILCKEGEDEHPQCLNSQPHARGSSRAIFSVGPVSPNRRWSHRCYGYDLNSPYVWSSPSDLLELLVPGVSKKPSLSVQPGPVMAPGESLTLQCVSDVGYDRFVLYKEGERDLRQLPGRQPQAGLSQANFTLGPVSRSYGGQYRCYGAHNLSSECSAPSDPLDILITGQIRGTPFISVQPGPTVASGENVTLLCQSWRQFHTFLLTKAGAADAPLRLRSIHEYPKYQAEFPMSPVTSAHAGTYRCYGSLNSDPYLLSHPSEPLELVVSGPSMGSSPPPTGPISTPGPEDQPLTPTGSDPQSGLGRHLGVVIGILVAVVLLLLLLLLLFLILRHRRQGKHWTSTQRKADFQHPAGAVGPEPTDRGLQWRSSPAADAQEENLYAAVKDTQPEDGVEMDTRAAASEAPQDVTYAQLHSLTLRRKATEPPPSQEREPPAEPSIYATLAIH
In short: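 Cells were blocked 30 min at 4° C in FACS buffer with 10% FBS and 0.5 mg/mL human IgG1. AF647-labelled antibodies were then bound for 1 h at 4° C. After Zombie Violet viability staining, binding was read by flow cytometry.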

[3] = target: T3, recombinant human LILRB1-His (human, UniProt Q8NHL6 24-458); assay: MSD ELISA, coated antigen, purified IgG1
T3 construct: Bought protein; also called LILRB1 protein
T3 sequence (Q8NHL6 24-458 limits assumed): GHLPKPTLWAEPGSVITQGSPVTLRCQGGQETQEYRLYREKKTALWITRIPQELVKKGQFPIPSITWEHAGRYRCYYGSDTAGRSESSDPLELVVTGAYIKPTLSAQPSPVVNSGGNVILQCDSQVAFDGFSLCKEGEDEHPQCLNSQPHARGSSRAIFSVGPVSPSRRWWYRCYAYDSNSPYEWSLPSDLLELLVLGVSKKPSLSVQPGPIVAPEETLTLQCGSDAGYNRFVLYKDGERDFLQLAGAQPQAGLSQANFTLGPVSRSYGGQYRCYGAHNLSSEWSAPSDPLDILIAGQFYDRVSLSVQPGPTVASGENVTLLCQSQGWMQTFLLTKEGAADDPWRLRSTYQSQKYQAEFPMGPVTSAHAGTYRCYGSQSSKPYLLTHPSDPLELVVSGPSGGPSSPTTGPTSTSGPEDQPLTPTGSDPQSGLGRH

[4] = target: T4, recombinant human LILRB2-His (human, UniProt Q8N423 22-461, limits assumed); assay: MSD ELISA, coated antigen, purified IgG1
T4 construct: Bought protein; also called LILRB2 protein
T4 sequence (Q8N423 22-461 limits assumed): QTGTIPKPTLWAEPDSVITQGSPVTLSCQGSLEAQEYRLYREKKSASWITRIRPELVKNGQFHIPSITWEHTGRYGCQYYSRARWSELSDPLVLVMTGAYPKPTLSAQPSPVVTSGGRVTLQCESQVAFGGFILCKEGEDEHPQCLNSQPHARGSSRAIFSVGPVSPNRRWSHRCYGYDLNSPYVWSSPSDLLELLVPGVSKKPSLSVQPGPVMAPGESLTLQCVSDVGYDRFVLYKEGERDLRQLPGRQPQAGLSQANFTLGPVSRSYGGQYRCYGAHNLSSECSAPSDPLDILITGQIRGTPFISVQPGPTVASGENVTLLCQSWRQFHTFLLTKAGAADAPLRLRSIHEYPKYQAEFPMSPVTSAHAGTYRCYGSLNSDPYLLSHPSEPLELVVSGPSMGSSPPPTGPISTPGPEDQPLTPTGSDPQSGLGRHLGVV

[5] = target: T5, recombinant cynomolgus LILRB1 (cynomolgus); assay: MSD ELISA, coated antigen, purified IgG1
T5 construct: Bought protein

[6] = target: T2, human LILRB2 on cells; assay: flow cytometry, HEK293-6E transfectants
In short: (§1)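 Antibody binding measured by flow cytometry on HEK293-6E cells transiently transfected with individual human LILRB (1–5) or LILRA (1, 2, 4, 5, 6) plasmids. Antibodies tested at 1 μg/mL.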

[7] = target: T6, human LILRA2 on HEK293-6E cells (human, UniProt Q8N149 24-483); assay: flow cytometry, HEK293-6E transfectants
T6 construct: whole, on cells; also called hLILRA2
T6 sequence (Q8N149 24-483): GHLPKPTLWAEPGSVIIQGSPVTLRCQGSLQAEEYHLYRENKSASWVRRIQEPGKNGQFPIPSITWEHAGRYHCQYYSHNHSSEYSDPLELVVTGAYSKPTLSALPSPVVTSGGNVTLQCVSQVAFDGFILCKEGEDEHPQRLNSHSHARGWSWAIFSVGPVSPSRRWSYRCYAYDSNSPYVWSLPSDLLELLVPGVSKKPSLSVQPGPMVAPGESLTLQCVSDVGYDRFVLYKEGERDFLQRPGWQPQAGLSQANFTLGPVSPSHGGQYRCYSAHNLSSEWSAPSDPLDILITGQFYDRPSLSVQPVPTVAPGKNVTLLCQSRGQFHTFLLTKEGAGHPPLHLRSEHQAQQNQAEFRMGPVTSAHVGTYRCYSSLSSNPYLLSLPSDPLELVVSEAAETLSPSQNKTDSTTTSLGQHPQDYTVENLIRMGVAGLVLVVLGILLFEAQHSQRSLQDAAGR
In short: as §1

[8] = target: T7, human LILRA5 on HEK293-6E cells (human, UniProt A6NI73 42-299); assay: flow cytometry, HEK293-6E transfectants
T7 construct: whole, on cells; also called hLILRA5
T7 sequence (A6NI73 42-299): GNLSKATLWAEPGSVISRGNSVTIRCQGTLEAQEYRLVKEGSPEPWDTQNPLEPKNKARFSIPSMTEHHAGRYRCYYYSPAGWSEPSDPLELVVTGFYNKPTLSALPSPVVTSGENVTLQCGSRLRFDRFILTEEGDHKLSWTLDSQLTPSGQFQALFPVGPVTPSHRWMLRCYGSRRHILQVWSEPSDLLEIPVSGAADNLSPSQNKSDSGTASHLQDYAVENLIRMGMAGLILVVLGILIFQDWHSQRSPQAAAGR
In short: as §1

[9] = target: T8, human LILRA4 on HEK293-6E cells (human, UniProt P59901 24-499); assay: flow cytometry, HEK293-6E transfectants
T8 construct: whole, on cells; also called hLILRA4
T8 sequence (P59901 24-499): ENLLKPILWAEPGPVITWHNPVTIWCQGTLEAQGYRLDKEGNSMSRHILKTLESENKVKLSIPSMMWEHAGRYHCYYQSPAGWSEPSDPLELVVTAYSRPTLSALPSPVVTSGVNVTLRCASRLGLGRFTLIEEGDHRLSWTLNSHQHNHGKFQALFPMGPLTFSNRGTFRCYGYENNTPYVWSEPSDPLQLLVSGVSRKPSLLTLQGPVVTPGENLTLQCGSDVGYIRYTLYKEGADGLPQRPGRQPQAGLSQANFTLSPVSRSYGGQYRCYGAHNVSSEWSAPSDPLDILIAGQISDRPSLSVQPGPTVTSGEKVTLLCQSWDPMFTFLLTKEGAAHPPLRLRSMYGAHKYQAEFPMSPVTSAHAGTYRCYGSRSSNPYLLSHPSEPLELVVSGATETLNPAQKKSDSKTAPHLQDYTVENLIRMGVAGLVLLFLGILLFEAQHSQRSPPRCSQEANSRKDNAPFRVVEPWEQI
In short: as §1

[10] = target: T1, human LILRB1 on cells; assay: flow cytometry, HEK293-6E transfectants
In short: as §1

[11] = target: T9, human LILRB5 on HEK293-6E cells (human, UniProt O75023 24-590); assay: flow cytometry, HEK293-6E transfectants
T9 construct: whole, on cells; also called hLILRB5
T9 sequence (O75023 24-590): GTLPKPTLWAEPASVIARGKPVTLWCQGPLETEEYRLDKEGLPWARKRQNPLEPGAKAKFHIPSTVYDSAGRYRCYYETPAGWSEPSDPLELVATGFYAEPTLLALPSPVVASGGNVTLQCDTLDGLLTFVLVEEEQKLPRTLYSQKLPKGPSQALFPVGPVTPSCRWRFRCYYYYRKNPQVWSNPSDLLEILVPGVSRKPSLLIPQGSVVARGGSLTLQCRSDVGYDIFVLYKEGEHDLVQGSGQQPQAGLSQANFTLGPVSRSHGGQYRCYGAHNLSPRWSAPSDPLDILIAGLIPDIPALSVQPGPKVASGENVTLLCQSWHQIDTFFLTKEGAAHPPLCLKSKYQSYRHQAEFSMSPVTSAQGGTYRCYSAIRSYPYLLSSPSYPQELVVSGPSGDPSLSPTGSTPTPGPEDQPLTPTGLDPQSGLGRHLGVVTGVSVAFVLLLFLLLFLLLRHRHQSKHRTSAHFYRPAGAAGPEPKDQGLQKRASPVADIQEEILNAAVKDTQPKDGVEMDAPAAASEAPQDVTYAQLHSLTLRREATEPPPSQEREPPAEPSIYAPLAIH
In short: as §1

[12] = target: T10, human LILRA1 on HEK293-6E cells (human, UniProt O75019 17-489); assay: flow cytometry, HEK293-6E transfectants
T10 construct: whole, on cells; also called hLILRA1
In short: as §1

[13] = target: T11, human LILRB4 on HEK293-6E cells (human, UniProt Q8NHJ6 22-448); assay: flow cytometry, HEK293-6E transfectants
T11 construct: whole, on cells; also called hLILRB4
In short: as §1

[14] = target: T12, human LILRA6 on HEK293-6E cells (human, UniProt Q6PI73 24-481); assay: flow cytometry, HEK293-6E transfectants
T12 construct: whole, on cells; also called hLILRA6
T12 sequence (Q6PI73 24-481): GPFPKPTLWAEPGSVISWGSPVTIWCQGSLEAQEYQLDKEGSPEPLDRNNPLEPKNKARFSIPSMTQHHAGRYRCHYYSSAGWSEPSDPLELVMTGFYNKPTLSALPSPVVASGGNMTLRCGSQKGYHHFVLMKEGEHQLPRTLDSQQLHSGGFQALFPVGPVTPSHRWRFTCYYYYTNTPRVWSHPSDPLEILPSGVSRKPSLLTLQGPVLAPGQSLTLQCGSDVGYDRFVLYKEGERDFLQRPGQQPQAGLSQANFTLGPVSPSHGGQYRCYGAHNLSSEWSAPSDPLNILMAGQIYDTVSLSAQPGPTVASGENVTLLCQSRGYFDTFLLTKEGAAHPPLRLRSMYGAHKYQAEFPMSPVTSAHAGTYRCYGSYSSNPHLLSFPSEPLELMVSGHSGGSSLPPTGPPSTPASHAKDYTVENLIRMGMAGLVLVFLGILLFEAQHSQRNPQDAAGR
In short: as §1

[15] = target: T13, human LILRB3 on HEK293-6E cells (human, UniProt O75022 24-631); assay: flow cytometry, HEK293-6E transfectants
T13 construct: whole, on cells; also called hLILRB3
T13 sequence (O75022 24-631): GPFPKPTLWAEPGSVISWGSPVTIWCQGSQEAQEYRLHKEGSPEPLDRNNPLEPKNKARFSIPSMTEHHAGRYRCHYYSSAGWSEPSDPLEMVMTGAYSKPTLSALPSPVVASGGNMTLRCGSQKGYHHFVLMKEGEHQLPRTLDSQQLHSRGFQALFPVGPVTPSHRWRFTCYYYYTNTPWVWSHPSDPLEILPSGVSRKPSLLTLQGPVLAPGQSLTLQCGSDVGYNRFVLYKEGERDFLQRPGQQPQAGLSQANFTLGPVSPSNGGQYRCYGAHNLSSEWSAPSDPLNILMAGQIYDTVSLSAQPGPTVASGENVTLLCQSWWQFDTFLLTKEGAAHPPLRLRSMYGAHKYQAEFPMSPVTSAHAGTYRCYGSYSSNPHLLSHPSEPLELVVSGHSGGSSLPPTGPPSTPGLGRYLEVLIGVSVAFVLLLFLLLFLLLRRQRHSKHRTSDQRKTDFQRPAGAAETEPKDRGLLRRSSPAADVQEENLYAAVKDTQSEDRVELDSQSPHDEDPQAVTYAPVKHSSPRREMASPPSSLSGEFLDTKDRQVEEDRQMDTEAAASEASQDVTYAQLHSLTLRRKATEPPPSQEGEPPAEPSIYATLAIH
In short: as §1

T1 sequence (Q8NHL6 24-650): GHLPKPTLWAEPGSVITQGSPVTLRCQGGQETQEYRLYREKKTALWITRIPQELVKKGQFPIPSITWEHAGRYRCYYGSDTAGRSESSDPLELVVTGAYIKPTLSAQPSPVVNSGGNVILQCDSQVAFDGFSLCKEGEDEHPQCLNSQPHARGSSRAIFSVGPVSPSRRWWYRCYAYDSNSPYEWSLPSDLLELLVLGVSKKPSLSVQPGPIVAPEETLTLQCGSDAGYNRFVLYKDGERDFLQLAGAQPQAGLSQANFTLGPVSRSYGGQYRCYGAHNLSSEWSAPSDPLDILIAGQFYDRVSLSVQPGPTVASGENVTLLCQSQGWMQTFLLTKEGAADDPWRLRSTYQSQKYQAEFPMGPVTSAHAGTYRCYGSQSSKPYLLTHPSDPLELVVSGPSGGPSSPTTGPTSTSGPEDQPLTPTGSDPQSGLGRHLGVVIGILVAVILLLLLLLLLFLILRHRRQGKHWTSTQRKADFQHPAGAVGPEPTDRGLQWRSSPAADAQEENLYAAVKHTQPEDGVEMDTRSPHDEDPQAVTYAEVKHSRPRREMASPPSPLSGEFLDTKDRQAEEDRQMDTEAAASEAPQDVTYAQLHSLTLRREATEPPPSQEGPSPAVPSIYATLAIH

Binder	EC50 [1] [mg/L]	EC50 [2] [mg/L]	EC50 [3] [mg/L]	EC50 [4] [mg/L]	EC50 [5] [mg/L]	MFI [6] [MFI]	MFI [7] [MFI]	binding result [7]	MFI [8] [MFI]	binding result [8]	MFI [9] [MFI]	binding result [9]	MFI [10] [MFI]	MFI [11] [MFI]	binding result [11]	MFI [12] [MFI]	binding result [12]	MFI [13] [MFI]	binding result [13]	MFI [14] [MFI]	further results
B21H1-55 (antibody, human IgG1, kappa, humanized IgG1/kappa, VH5+VL5) heavy: not shown light: DIQMTQTPSTVEASVGGTVTITCQASGNIYSFLAWYQQKPGQPPKLLIYTASNLETGVPSRFSGSGSGTEYTLTISGLQSDDAATYYCLGGLYSSDVSYAFGGGTEVVVKRTVAAPSVFIFPPSDEQLKSGTASVVCLLNNFYPREAKVQWKVDNALQSGNSQESVTEQDSKDSTYSLSSTLTLSKADYEKHKVYACEVTHQGLSSPVTKSFNRGEC	0.0507	0.00071	0.00944	0.0369	0.25	4120	27.9	no binding (tested: 1 µg/mL)	77.4	no binding (tested: 1 µg/mL)	144	no binding (tested: 1 µg/mL)	1030	94.8	no binding (tested: 1 µg/mL)	332	no binding (tested: 1 µg/mL)	33.5	no binding (tested: 1 µg/mL)	148	binding result [14]: no binding (tested: 1 µg/mL); MFI [15]: 108 MFI; binding result [15]: no binding (tested: 1 µg/mL)
B21H1-24 (antibody, human IgG1, kappa, humanized IgG1/kappa, VH2+VL4) heavy: not shown light: DVVMTQSPSTVSASVGDRVTLTCQASGNIYSFLAWYQQKPGQPPKLLIYTASNLETGVPDRFSGSGSGTDYTLTISSLQADDFATYYCLGGLYSSDVSYAFGQGTKVEIKRTVAAPSVFIFPPSDEQLKSGTASVVCLLNNFYPREAKVQWKVDNALQSGNSQESVTEQDSKDSTYSLSSTLTLSKADYEKHKVYACEVTHQGLSSPVTKSFNRGEC	0.0595	0.00142	0.00864	0.0287	0.286	6050	25.6	no binding (tested: 1 µg/mL)	74.5	no binding (tested: 1 µg/mL)	125	no binding (tested: 1 µg/mL)	985	87	no binding (tested: 1 µg/mL)	246	no binding (tested: 1 µg/mL)	28.6	no binding (tested: 1 µg/mL)	141	binding result [14]: no binding (tested: 1 µg/mL); MFI [15]: 86.2 MFI; binding result [15]: no binding (tested: 1 µg/mL)
B21H1-32 (antibody, human IgG1, kappa, humanized IgG1/kappa, VH3+VL2) heavy: not shown light: DIQMTQSPSSLSASVGDRVTITCQASGNIYSFLAWYQQKPGKVPKLLIYTASNLETGVPSRFSGSGSGTDYTLTISSLQSEDAATYYCLGGLYSSDVSYAFGGGTKVVIKRTVAAPSVFIFPPSDEQLKSGTASVVCLLNNFYPREAKVQWKVDNALQSGNSQESVTEQDSKDSTYSLSSTLTLSKADYEKHKVYACEVTHQGLSSPVTKSFNRGEC	0.0518	0.00123	0.00646	0.0219	0.272	5460	27.8	no binding (tested: 1 µg/mL)	74	no binding (tested: 1 µg/mL)	126	no binding (tested: 1 µg/mL)	1040	87.9	no binding (tested: 1 µg/mL)	249	no binding (tested: 1 µg/mL)	28.8	no binding (tested: 1 µg/mL)	142	binding result [14]: no binding (tested: 1 µg/mL); MFI [15]: 99.2 MFI; binding result [15]: no binding (tested: 1 µg/mL)
B21H1-43 (antibody, human IgG1, kappa, humanized IgG1/kappa, VH4+VL3) heavy: not shown light: DIVMTQSPSSVSASVGDRVTITCQASGNIYSFLAWYQQKPGKAPKLLIYTASNLETGVPSRFSGSGSGTDFTLTISSLQPEDFATYYCLGGLYSSDVSYAFGGGTKVVIKRTVAAPSVFIFPPSDEQLKSGTASVVCLLNNFYPREAKVQWKVDNALQSGNSQESVTEQDSKDSTYSLSSTLTLSKADYEKHKVYACEVTHQGLSSPVTKSFNRGEC	0.0515	0.00135	0.00734	0.0248	1.51	6370	25.2	no binding (tested: 1 µg/mL)	71.8	no binding (tested: 1 µg/mL)	114	no binding (tested: 1 µg/mL)	1120	85.5	no binding (tested: 1 µg/mL)	220	no binding (tested: 1 µg/mL)	26.5	no binding (tested: 1 µg/mL)	141	binding result [14]: no binding (tested: 1 µg/mL); MFI [15]: 79.2 MFI; binding result [15]: no binding (tested: 1 µg/mL)
B21H1-11 (antibody, human IgG1, kappa, humanized IgG1/kappa, VH1+VL1) heavy: not shown light: DIQMTQSPSTLSASVGDRVTITCQASGNIYSFLAWYQQKPGKAPKLLIYTASNLETGVPSRFSGSGSGTEYTLTISSLQPDDFATYYCLGGLYSSDVSYAFGPGTKVEIKRTVAAPSVFIFPPSDEQLKSGTASVVCLLNNFYPREAKVQWKVDNALQSGNSQESVTEQDSKDSTYSLSSTLTLSKADYEKHKVYACEVTHQGLSSPVTKSFNRGEC	0.203	0.00107	0.00734	0.0306	4.4	5090	27.8	no binding (tested: 1 µg/mL)	76	no binding (tested: 1 µg/mL)	140	no binding (tested: 1 µg/mL)	1000	93.4	no binding (tested: 1 µg/mL)	244	no binding (tested: 1 µg/mL)	32.4	no binding (tested: 1 µg/mL)	152	binding result [14]: no binding (tested: 1 µg/mL); MFI [15]: 102 MFI; binding result [15]: no binding (tested: 1 µg/mL)
